Measured values taken from patent publication US20060193821, “Aptamers to the human IL-12 cytokine family and their use as autoimmune disease therapeutics” (published 2006).

Assays:
[1] = biological target: IL-12 (human, p35/p40 heterodimer) (Homo sapiens, UniProt P29459;P29460 SEQ:57-253,SEQ:23-328); test: filter; no significant binding
[2] = biological target: T1, IL-23 (human, p19/p40 heterodimer) (Homo sapiens, UniProt Q9NPF7;P29460 SEQ:20-189,SEQ:23-328); test: filter; SHMCK, tRNA; conditions: tags: R&D Systems, carrier free
T1 sequence (Q9NPF7 20-189, chain 1 of 2): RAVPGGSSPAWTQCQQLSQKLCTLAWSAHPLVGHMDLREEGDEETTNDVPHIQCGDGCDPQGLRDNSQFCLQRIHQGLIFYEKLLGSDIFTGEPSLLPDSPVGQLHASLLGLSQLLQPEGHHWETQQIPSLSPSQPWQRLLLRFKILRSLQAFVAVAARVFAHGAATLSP
T1 sequence (P29460 23-328, chain 2 of 2): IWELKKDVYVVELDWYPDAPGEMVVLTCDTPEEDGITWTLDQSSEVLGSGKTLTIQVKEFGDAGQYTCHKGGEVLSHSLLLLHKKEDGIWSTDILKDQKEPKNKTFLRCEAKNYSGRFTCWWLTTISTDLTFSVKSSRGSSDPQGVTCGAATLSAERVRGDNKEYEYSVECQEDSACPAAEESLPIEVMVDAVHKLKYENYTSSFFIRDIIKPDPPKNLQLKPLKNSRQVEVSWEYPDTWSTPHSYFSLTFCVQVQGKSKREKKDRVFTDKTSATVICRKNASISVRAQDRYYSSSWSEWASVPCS
Description: Monitoring Progress of rRfY Selection. Dot blot binding assays were performed throughout the selections to monitor the protein binding affinity of the pools. Trace ³²P-labeled RNA was combined with a dilution series of h-IL-23 and incubated at room temperature for 30 minutes in 1×SHMCK (20 mM Hepes, 120 mM NaCl, 5 mM KCl, 1 mM MgCl₂, 1 mM CaCl₂, pH 7.4) plus 0.1 mg/mL tRNA for a final volume of 20 μL. The binding reactions were analyzed by nitrocellulose filtration using a Minifold I dot-blot, 96-well vacuum filtration manifold (Schleicher & Schuell, Keene, N.H.). A three-layer filtration medium was used, consisting (from top to bottom) of Protran nitrocellulose (Schleicher & Schuell), Hybond-P nylon (Amersham Biosciences) and GB002 gel blot paper (Schleicher & Schuell). RNA that is bound to protein is captured on the nitrocellulose filter, whereas the non-protein bound RNA is captured on the nylon filter. The gel blot paper was included simply as a supporting medium for the other filters. Following filtration, the filter layers were separated, dried and exposed on a phosphor screen (Amersham Biosciences, Piscataway, N.J.) and quantified using a Storm 860 Phosphorimager® blot imaging system (Amersham Biosciences).
When a significant positive ratio of binding of RNA in the presence of h-IL-23 versus in the absence of h-IL-23 was seen, the pools were cloned using a TOPO TA cloning kit (Invitrogen, Carlsbad, Calif.) according to the manufacturer's instructions. For the h-IL-23 and X-IL-23 selections, the Round 8 pool templates were cloned, and 32 individual clones from each selections were assayed in a 1-point dot blot screen (+/−75 nM h-IL-23, as well as a separate screen at +/−75 nM h-IL-12). For the PN-IL-23 selection, the Round 10 pool was cloned and sequenced, and 8 unique clones were assayed for protein binding in a 1-point dot blot screen (+/−200 nM h-IL-23 and a separate screen at +/−200 nM h-IL-12). Subsequently, the Round 10 PN-IL-23 pool was re-cloned for further sequences, as well as the R12 PN-IL-23 pool, and the clones were assayed for protein binding in a 1 point do blot screen (+/−100 nM h-IL-23 or +/−200 nM h-IL-12).

[3] = biological target: T1, IL-23 (human, p19/p40 heterodimer); test: cell_activity; TransAM STAT3; conditions: tags: R&D Systems, carrier free
Description: In summary, the cell-based assay was conducted by isolating the peripheral blood mononuclear cells (PBMCs) from whole blood using a Histopaque gradient (Sigma, St. Louis, Mo.). The PBMCs were cultured for 3 to 5 days at 37° C./5% CO₂ in Peripheral Blood Medium (Sigma) which contains PHA, supplemented with IL-2 (100 units/mL) (R&D Systems, Minneapolis, Minn.), to generate PHA Blasts. To test IL-23 aptamers, the PHA Blasts were washed twice with 1×PBS, then serum starved for four hours in RPMI, 0.20% FBS. After serum starvation, approximately 2 million cells were aliquotted into appropriately labeled eppendorf tubes. hIL-23 at a final constant concentration of 3 ng/mL (R&D Systems, Minneapolis, Minn.) was combined with a dilution series of various IL-23 aptamers as described in Example 1, and the cytokine/aptamer mixture was added to the aliquotted cells in a final volume of 100 μl and incubated at 37° C. for 10-12 minutes. The incubation reaction was stopped by adding 1 mL of ice-cold PBS with 1.5 mM Na₃VO₄. Cell lysates were made using the lysis buffer provided by the TransAM™ STAT 3 assay following the manufacturer's instructions. FIG. 20 depicts a flow summary of the protocol used for the cell based assay.
Full length clones from the rRfY selection described in Example 1A, and select minimized rRfY clones that were described in Example 2A. 1, were tested using the TransAM™ STAT3 activation assay. Table 34 summarizes the cell based assay data for IL-23 full length aptamers generated from the rRfY selections described in Example 1A. 1, each compared to the activity of their respective parent (full length) clone.

Chain of IL-12 (human, p35/p40 heterodimer) (P29459 23-219, chain 1 of 2): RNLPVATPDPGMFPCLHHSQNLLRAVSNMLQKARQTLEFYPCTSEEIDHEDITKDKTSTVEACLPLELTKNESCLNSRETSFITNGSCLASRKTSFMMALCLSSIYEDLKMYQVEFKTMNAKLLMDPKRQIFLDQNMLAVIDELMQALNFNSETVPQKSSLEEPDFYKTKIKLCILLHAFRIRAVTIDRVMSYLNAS
Chain of IL-12 (human, p35/p40 heterodimer) (P29460 23-328, chain 2 of 2): as the sequence (P29460 23-328, chain 2 of 2) above

B1: AMX86-E6 (ssRNA)
RNA: GGGAAAAGCGAAUCAUACACAAGAUCGCAAAAGGAGUUUGUCUCUGCUCUCGGAGUGUGUCAGUGCUCCGCCAGAGACCAACCGAGAA
modifications: 2'-F C,U
binding result [1]: no binding | Kd [2]: 51.3 nM

B2: AMX86-F6 (ssRNA)
RNA: GGGAAAAGCGAAUCAUACACAAGAAUGUAUACAAUGCCCUAUCGUCAGUUAGGCAUGUGUGGAUGCUCCGCCAGAGACCAACCGAGAA
modifications: 2'-F C,U
binding result [1]: no binding | Kd [2]: 69.1 nM

B3: AMX86-C7 (ssRNA)
RNA: GGGAAAAGCGAAUCAUACACAAGAUGCGCUAUGUUUGGCUGGGAAUUGUAGCAUUGCUCAAGUGGCUCCGCCAGAGACCAACCGAGAA
modifications: 2'-F C,U
binding result [1]: no binding | Kd [2]: 140 nM

B4: AMX86-H7 (ssRNA)
RNA: GGGAAAAGCGAAUCAUACACAAGAGAUGACUACACGCCAGUGUGCGCUUUUUGCGGAGUUAGCGGCUCCGCCAGAGACCAACCGAGAA
modifications: 2'-F C,U
binding result [1]: no binding | Kd [2]: 89.8 nM

B5: AMX86-C8 (ssRNA)
RNA: GGGAAAAGCGAAUCAUACACAAGAGUCGUGAUGAUUUGGGUUAUGUCAGUUCCCUGUAUGGUUUCGCUCCGCCAGAGACCAACCGAGAA
modifications: 2'-F C,U
binding result [1]: no binding | Kd [2]: 107 nM

B6: AMX86-D8 (ssRNA)
RNA: GGGAAAAGCGAAUCAUACACAAGACAGAGGCAAUGAGAGCCUGGCGAUGUCAGUCGCAUCUUGCUGCUCCGCCAGAGACCAACCGAGAA
modifications: 2'-F C,U
binding result [1]: no binding | Kd [2]: 294 nM

B7: AMX86-A9 (ssRNA)
RNA: GGGAAAAGCGAAUCAUACACAAGAUCUACGAUUGUUCAGGUUUUUUGUACUCAACUAAAGGCGAGCUCCGCCAGAGACCAACCGAGAA
modifications: 2'-F C,U
binding result [1]: no binding | Kd [2]: 190 nM

B8: AMX86-G9 (ssRNA)
RNA: GGGAAAAGCGAAUCAUACACAAGAUCCCAGCGGUACGUGAGUCUGUUAAAGGCCACCUAAUGUCGCUCCGCCAGAGACCAACCGAGAA
modifications: 2'-F C,U
binding result [1]: no binding | Kd [2]: 109 nM

B9: AMX84-A11 (ssRNA)
RNA: GGGAAAAGCGAAUCAUACACAAGAGAGGUAUGUGGUUUUGCGGAGCAACUCGUGUCAGCGGUCAGCUCCGCCAGAGACCAACCGAGAA
modifications: 2'-F C,U
binding result [1]: no binding | Kd [2]: 17.8 nM

B10: AMX84-E12 (ssRNA)
RNA: GGGAAAAGCGAAUCAUACACAAGAAGUUUUUGUGCUCUGAGUACUCAGCGUCCGUAAGGGAUAUGCUCCGCCAGAGACCAACCGAGAA
modifications: 2'-F C,U
binding result [1]: no binding | Kd [2]: 27.8 nM

B11: AMX84-C10 (ssRNA)
RNA: GGGAAAAGCGAAUCAUACACAAGAGAUGUAUUCAGGCGGUCCGCAUUGAUGUCAGUUAUGCGUAGCUCCGCCAGAGACCAACCGAGAA
modifications: 2'-F C,U
IC50 [3]: 250 nM | binding result [1]: no binding | Kd [2]: 94.3 nM

B12: AMX84-G11 (ssRNA)
RNA: GGGAAAAGCGAAUCAUACACAAGAGUGCUUCGUAUGUUGAAUACGACGUUCGCAGGACGAAUAUGCUCCGCCAGAGACCAACCGAGAA
modifications: 2'-F C,U
IC50 [3]: 250 nM | binding result [1]: no binding | Kd [2]: 291 nM

B13: AMX91-F11 (ssRNA)
RNA: GGGAAAAGCGAAUCAUACACAAGACGCGUCAGGUCCACGCUGAAAUUUAUUUUCGGCAGUGUAAGCUCCGCCAGAGACCAACCGAGAA
modifications: 2'-F C,U
binding result [1]: no binding | Kd [2]: 202 nM

B14: AMX91-G1 (ssRNA)
RNA: GGGAAAAGCGAAUCAUACACAAGAUAUGUGCCUGGGAUGGACGACAUCCCCUGUCUAAGGAUAUGCUCCGCCAGAGACCAACCGAGAA
modifications: 2'-F C,U
binding result [1]: no binding | Kd [2]: 82.3 nM

B15: AMX91-E3 (ssRNA)
RNA: GGGAAAAGCGAAUCAUACACAAGAUUACUCCGUUAGUGUCAGUUGACGGAGGGAGCGUACUAUUGCUCCGCCAGAGACCAACCGAGAA
modifications: 2'-F C,U
binding result [1]: no binding | Kd [2]: 205 nM

B16: AMX91-H3 (ssRNA)
RNA: GGGAAAAGCGAAUCAUACACAAGACAUUGUGCUUUAUCACGUGGGUGAUAACGACGAAAGUUAUGCUCCGCCAGAGACCAACCGAGAA
modifications: 2'-F C,U
IC50 [3]: 50 nM | binding result [1]: no binding | Kd [2]: 266 nM

B17: AMX91-B5 (ssRNA)
RNA: GGGAAAAGCGAAUCAUACACAAGACAGUGUAUGAGGAAGAUUACUUCCAUUCCUGAGCGGUUUUCGCUCCGCCAGAGACCAACCGAGAA
modifications: 2'-F C,U
binding result [1]: no binding | Kd [2]: 148 nM

B18: AMX91-A6 (ssRNA)
RNA: GGGAAAAGCGAAUCAUACACAAGAUUGGCAAUGUGACCUUCAACCCUUUUCCCGAUGAACAGUGGCUCCGCCAGAGACCAACCGAGAA
modifications: 2'-F C,U
binding result [1]: no binding | Kd [2]: 60.3 nM

B19: AMX91-G7 (ssRNA)
RNA: GGGAAAAGCGAAUCAUACACAAGACAUGACUGCAUGCUUCGGGAGUAUCUCGGUCCCGACGUUCGCUCCGCCAGAGACCAACCGAGAA
modifications: 2'-F C,U
IC50 [3]: 150 nM | binding result [1]: no binding | Kd [2]: 63.6 nM

B20: AMX91-G11 (ssRNA)
RNA: GGGAAAAGCGAAUCAUACACAAGACUUAACAGUGCGGGGCGCAGUGUAUAGAUCCGCAAUGUGUGCUCCGCCAGAGACCAACCGAGAA
modifications: 2'-F C,U
binding result [1]: no binding | Kd [2]: 104 nM

B21: AMX91-H12 (ssRNA)
RNA: GGGAAAAGCGAAUCAUACACAAGACGUGUGCUUUAUGUAAACCAUAACGUUCCAUAAGGAAUAUGCUCCGCCAGAGACCAACCGAGAA
modifications: 2'-F C,U
binding result [1]: no binding | Kd [2]: 60.8 nM

B22: F11.min2 (ssRNA)
RNA: GGACAUACACAAGAUGUGCUUGAGUUAAAUCUCAUCGUCCCCGUUUGGGGAUAUGUC
modifications: 2'-F C,U
IC50 [3]: 25 nM

B23: Type 1.5 (ssRNA)
RNA: GGAGUACGCCGAAAGGCGCUUCCGAAAGGACGUCCGUAAGGGAUACUCC
modifications: 2'-F C,U
IC50 [3]: 80 nM

B24: A10.min5 (ssRNA)
RNA: GGAGCAUACACAAGAAGUUUUUUGUGCUCUGAGUACUCAGCGUCCGUAAGGGAUAUGCUCC
modifications: 2'-F C,U
IC50 [3]: 300 nM

B25: B10.min4 (ssRNA)
RNA: GGAGCAUACACAAGAAGUGCUUCAUGCGGCAAACUGCAUGACGUCGAAUAGAUAUGCUCC
modifications: 2'-F C,U
IC50 [3]: 500 nM

B26: AMX84-F11 (ssRNA)
RNA: GGGAAAAGCGAAUCAUACACAAGAUGUGCUUGAGUUAAAUCUCAUCGUCCCCGUUUGGGGAUAUGCUCCGCCAGAGACCAACCGAGAA
modifications: 2'-F C,U
IC50 [3]: 250 nM
